Substitutions are numbered along the chain they refer to.
How the values were obtained:
Settings in all cases: both partners purified
GST-MTR4-∆N = target: T1, GST-MTR4-∆N (human, UniProt P42285 75-1042); assay: pull-down; GST-MTR4∆N (WT or mutants) as bait, 30 μM, with 60 μM Trx-NOP53^84–123 in 30 μl, glutathione sepharose; 50 mM Hepes pH 7.5, 150 mM NaCl, 5% glycerol, 0.05% NP40, 1 mM DTT, 4 °C; SDS-PAGE, Coomassie
T1 construct: Tag is cleavable with 3C protease; kept for the GST pull-downs; also called GST-tagged MTR4∆N; source: E. coli BL21 star (DE3), purified (Ni-NTA, heparin, SEC); not shown: 6xHis-GST, N-terminal, kept
T1 sequence (looked up): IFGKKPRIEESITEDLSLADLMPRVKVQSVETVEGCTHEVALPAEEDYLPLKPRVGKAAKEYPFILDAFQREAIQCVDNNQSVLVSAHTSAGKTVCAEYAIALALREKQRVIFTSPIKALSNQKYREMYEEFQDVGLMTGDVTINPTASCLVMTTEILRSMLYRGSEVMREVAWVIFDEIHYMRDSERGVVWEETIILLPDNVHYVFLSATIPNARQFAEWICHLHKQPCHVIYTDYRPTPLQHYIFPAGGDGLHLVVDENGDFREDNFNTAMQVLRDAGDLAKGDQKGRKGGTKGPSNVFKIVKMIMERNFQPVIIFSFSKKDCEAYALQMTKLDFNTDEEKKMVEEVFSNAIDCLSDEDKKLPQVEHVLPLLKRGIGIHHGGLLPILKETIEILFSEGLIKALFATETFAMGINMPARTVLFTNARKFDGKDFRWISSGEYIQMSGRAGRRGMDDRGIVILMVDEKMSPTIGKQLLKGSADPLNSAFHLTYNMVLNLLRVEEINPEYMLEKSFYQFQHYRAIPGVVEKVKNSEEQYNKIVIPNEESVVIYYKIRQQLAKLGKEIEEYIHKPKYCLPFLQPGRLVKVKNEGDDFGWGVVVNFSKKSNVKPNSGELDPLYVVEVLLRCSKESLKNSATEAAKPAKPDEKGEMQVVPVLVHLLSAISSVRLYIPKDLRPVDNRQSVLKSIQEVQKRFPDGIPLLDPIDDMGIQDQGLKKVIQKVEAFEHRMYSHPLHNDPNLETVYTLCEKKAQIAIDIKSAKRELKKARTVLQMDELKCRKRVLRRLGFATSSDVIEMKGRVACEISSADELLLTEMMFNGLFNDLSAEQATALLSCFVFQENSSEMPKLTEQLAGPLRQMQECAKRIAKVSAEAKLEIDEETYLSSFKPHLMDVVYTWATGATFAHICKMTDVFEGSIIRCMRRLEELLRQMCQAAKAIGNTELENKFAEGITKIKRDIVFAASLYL

GST-MTR4∆N R743E = target: T2, GST-MTR4∆N R743E (human, UniProt P42285 75-1042, R743E); assay: as above
T2 construct: also called R743E mutant; source: E. coli BL21 star (DE3), purified (Ni-NTA, heparin, SEC); not shown: 6xHis-GST, N-terminal, kept
T2 sequence (looked up): T1 sequence (looked up) with R669E

GST-MTR4∆N F677E = target: T3, GST-MTR4∆N F677E (human, UniProt P42285 75-1042, F677E); assay: as above
T3 construct: source: E. coli BL21 star (DE3), purified (Ni-NTA, heparin, SEC); not shown: 6xHis-GST, N-terminal, kept
T3 sequence (looked up): T1 sequence (looked up) with F603E

MTR4∆N2 (70–1042) = target: T4, MTR4∆N2 (70–1042) (human, UniProt P42285 70-1042); assay: crystal structure; MTR4∆N2 (70–1042) mixed with 2 molar excess of NVL (167–216), with ADP and MgCl2; 3.07 Å, space group P6(1); PDB 6RO1
T4 construct: human MTR4; Crystallised with ADP and MgCl2 in the buffer; source: E. coli, purified; GST fusion cleaved with TEV; not shown: GST, N-terminal, cleaved
T4 sequence (looked up): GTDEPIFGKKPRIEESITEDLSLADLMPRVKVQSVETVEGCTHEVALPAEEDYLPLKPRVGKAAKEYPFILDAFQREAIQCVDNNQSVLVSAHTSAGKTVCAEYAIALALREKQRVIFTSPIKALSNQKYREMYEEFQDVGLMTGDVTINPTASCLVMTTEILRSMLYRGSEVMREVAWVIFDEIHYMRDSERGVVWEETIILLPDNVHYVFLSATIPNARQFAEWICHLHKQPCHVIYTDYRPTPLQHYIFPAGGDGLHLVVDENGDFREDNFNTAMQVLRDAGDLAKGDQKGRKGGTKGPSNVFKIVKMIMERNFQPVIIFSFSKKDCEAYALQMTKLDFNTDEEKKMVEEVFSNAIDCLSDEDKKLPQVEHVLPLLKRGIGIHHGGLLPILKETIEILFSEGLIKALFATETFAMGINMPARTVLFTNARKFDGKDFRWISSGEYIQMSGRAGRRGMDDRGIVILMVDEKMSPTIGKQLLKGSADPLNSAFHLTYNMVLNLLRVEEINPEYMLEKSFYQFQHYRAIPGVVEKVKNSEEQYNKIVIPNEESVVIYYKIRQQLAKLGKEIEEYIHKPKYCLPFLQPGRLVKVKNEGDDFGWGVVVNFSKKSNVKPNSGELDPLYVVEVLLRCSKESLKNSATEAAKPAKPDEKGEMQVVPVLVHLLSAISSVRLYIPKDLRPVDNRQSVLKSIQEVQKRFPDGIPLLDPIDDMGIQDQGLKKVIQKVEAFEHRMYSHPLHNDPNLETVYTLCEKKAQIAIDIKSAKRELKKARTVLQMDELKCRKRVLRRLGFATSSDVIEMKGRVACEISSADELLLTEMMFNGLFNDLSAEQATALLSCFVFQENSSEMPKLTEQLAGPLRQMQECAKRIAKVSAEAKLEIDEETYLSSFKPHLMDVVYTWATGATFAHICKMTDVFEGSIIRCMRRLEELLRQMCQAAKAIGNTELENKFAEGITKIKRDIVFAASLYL

MTR4-∆N = target: T5, MTR4-∆N (human, UniProt P42285 75-1042); assay: ITC; 500 µM NVL injected into 40 µM MTR4-∆N; 25 °C; 50 mM Hepes/NaOH pH 7.5, 150 mM NaCl, 0.5 mM TCEP
T5 construct: Used in ITC, named without GST; the tag was probably cleaved ('when appropriate'); also called MTR4-∆N (the reactant); source: E. coli BL21 star (DE3), purified (Ni-NTA, heparin, SEC)
T5 sequence (looked up): T1 sequence (looked up)

MTR4-KOW = target: T6, MTR4-KOW (human, UniProt P42285 645-787); assay: NMR titration; 1H-15N HSQC of 53 μM 15N-labelled MTR4-KOW with 0.25, 0.5, 1, 2 and 6 molar equivalents of unlabeled NVL^167–216; 298 K; phosphate buffered saline, 10% D2O
T6 construct: human MTR4 KOW domain, residues 645–787; Named without GST in MST, NMR and ITC; the methods say the His-GST tag was cleaved with 3C protease 'when appropriate', so it was probably removed; Isotope-labelled for NMR; also called unlabeled MTR4 KOW; 15N-labelled MTR4-KOW; source: E. coli BL21 star (DE3), purified (Ni-NTA, heparin, SEC); minimal medium with 15N/13C for NMR
T6 sequence (looked up): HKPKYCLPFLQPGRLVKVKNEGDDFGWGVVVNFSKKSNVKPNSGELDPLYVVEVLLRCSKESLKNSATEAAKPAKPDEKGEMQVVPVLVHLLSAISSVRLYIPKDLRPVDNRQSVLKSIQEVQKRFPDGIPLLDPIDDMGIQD

Measured: binding result

B1: Trx-NOP53^84–123 (domain or fragment)
chain: not shown
notes: human NOP53 (also known as GLTSCR2), residues 84–123; also called human Nop53 orthologue; human Nop53; not shown: Trx, N-terminal, kept
binds: GST-MTR4-∆N | GST-MTR4∆N R743E | GST-MTR4∆N F677E

B2: NVL^167–216 (peptide, UniProt O15381 167-216, looked up)
chain: KDSEGGWFIDKTPSVKKDSFFLDLSCEKSNPKKPITEIQDSKDSSLLESD
notes: Named without Trx in ITC, NMR and crystallisation; the methods say tags were cleaved with 3C protease 'when appropriate', so the tag was probably removed; also called NVL peptide; source: E. coli BL21 star (DE3), purified (Ni-NTA, SEC)
binds: MTR4∆N2 (70–1042) | MTR4-∆N | MTR4-KOW

— article PMC6662825, “The MTR4 helicase recruits nuclear adaptors of the human RNA exosome using distinct arch-interacting motifs” (Nature Communications, 2019)
